{"source": "paper PMC10945505", "key": {"F-FGF21FL": {"molecular_target": "F-FGF21FL (UniProt Q9NSA1)", "test": "BLI; Octet Red 96, 30°C, 1000 rpm; F-FGF21 proteins at 50 nM captured on AHC (anti-hIgG Fc capture) biosensors, βKlotho in running buffer at 0.2743-200 nM; global fit, 1:1 binding model, monovalent KD"}, "F-FGF21∆N": {"molecular_target": "F-FGF21∆N (UniProt Q9NSA1)", "test": "BLI; Octet Red 96, 30°C, 1000 rpm; F-FGF21 proteins at 50 nM captured on AHC (anti-hIgG Fc capture) biosensors, βKlotho in running buffer at 0.2743-200 nM; global fit, 1:1 binding model, monovalent KD"}}}
{"substance": "Human βKlotho (from UniProt Q86Z14 1-996) (receptor)", "values": [{"measurement": "Kd", "setting": "F-FGF21FL", "result": 10.1, "unit": "nM"}, {"measurement": "koff", "setting": "F-FGF21FL", "result": 0.00124, "unit": "s⁻¹"}, {"measurement": "kon", "setting": "F-FGF21FL", "result": 122000, "unit": "M⁻¹ s⁻¹"}, {"measurement": "Kd", "setting": "F-FGF21∆N", "result": 11.8, "unit": "nM"}, {"measurement": "koff", "setting": "F-FGF21∆N", "result": 0.00195, "unit": "s⁻¹"}, {"measurement": "kon", "setting": "F-FGF21∆N", "result": 166000, "unit": "M⁻¹ s⁻¹"}]}
